For the assay, the target named is low density lipoprotein receptor-related protein (LRP-1) on rat liver cells (rat) (UniProt G3V928). Description: cell-based or functional assay.
Sequence of low density lipoprotein receptor-related protein (LRP-1) on rat liver cells (rat) (G3V928 20-4545): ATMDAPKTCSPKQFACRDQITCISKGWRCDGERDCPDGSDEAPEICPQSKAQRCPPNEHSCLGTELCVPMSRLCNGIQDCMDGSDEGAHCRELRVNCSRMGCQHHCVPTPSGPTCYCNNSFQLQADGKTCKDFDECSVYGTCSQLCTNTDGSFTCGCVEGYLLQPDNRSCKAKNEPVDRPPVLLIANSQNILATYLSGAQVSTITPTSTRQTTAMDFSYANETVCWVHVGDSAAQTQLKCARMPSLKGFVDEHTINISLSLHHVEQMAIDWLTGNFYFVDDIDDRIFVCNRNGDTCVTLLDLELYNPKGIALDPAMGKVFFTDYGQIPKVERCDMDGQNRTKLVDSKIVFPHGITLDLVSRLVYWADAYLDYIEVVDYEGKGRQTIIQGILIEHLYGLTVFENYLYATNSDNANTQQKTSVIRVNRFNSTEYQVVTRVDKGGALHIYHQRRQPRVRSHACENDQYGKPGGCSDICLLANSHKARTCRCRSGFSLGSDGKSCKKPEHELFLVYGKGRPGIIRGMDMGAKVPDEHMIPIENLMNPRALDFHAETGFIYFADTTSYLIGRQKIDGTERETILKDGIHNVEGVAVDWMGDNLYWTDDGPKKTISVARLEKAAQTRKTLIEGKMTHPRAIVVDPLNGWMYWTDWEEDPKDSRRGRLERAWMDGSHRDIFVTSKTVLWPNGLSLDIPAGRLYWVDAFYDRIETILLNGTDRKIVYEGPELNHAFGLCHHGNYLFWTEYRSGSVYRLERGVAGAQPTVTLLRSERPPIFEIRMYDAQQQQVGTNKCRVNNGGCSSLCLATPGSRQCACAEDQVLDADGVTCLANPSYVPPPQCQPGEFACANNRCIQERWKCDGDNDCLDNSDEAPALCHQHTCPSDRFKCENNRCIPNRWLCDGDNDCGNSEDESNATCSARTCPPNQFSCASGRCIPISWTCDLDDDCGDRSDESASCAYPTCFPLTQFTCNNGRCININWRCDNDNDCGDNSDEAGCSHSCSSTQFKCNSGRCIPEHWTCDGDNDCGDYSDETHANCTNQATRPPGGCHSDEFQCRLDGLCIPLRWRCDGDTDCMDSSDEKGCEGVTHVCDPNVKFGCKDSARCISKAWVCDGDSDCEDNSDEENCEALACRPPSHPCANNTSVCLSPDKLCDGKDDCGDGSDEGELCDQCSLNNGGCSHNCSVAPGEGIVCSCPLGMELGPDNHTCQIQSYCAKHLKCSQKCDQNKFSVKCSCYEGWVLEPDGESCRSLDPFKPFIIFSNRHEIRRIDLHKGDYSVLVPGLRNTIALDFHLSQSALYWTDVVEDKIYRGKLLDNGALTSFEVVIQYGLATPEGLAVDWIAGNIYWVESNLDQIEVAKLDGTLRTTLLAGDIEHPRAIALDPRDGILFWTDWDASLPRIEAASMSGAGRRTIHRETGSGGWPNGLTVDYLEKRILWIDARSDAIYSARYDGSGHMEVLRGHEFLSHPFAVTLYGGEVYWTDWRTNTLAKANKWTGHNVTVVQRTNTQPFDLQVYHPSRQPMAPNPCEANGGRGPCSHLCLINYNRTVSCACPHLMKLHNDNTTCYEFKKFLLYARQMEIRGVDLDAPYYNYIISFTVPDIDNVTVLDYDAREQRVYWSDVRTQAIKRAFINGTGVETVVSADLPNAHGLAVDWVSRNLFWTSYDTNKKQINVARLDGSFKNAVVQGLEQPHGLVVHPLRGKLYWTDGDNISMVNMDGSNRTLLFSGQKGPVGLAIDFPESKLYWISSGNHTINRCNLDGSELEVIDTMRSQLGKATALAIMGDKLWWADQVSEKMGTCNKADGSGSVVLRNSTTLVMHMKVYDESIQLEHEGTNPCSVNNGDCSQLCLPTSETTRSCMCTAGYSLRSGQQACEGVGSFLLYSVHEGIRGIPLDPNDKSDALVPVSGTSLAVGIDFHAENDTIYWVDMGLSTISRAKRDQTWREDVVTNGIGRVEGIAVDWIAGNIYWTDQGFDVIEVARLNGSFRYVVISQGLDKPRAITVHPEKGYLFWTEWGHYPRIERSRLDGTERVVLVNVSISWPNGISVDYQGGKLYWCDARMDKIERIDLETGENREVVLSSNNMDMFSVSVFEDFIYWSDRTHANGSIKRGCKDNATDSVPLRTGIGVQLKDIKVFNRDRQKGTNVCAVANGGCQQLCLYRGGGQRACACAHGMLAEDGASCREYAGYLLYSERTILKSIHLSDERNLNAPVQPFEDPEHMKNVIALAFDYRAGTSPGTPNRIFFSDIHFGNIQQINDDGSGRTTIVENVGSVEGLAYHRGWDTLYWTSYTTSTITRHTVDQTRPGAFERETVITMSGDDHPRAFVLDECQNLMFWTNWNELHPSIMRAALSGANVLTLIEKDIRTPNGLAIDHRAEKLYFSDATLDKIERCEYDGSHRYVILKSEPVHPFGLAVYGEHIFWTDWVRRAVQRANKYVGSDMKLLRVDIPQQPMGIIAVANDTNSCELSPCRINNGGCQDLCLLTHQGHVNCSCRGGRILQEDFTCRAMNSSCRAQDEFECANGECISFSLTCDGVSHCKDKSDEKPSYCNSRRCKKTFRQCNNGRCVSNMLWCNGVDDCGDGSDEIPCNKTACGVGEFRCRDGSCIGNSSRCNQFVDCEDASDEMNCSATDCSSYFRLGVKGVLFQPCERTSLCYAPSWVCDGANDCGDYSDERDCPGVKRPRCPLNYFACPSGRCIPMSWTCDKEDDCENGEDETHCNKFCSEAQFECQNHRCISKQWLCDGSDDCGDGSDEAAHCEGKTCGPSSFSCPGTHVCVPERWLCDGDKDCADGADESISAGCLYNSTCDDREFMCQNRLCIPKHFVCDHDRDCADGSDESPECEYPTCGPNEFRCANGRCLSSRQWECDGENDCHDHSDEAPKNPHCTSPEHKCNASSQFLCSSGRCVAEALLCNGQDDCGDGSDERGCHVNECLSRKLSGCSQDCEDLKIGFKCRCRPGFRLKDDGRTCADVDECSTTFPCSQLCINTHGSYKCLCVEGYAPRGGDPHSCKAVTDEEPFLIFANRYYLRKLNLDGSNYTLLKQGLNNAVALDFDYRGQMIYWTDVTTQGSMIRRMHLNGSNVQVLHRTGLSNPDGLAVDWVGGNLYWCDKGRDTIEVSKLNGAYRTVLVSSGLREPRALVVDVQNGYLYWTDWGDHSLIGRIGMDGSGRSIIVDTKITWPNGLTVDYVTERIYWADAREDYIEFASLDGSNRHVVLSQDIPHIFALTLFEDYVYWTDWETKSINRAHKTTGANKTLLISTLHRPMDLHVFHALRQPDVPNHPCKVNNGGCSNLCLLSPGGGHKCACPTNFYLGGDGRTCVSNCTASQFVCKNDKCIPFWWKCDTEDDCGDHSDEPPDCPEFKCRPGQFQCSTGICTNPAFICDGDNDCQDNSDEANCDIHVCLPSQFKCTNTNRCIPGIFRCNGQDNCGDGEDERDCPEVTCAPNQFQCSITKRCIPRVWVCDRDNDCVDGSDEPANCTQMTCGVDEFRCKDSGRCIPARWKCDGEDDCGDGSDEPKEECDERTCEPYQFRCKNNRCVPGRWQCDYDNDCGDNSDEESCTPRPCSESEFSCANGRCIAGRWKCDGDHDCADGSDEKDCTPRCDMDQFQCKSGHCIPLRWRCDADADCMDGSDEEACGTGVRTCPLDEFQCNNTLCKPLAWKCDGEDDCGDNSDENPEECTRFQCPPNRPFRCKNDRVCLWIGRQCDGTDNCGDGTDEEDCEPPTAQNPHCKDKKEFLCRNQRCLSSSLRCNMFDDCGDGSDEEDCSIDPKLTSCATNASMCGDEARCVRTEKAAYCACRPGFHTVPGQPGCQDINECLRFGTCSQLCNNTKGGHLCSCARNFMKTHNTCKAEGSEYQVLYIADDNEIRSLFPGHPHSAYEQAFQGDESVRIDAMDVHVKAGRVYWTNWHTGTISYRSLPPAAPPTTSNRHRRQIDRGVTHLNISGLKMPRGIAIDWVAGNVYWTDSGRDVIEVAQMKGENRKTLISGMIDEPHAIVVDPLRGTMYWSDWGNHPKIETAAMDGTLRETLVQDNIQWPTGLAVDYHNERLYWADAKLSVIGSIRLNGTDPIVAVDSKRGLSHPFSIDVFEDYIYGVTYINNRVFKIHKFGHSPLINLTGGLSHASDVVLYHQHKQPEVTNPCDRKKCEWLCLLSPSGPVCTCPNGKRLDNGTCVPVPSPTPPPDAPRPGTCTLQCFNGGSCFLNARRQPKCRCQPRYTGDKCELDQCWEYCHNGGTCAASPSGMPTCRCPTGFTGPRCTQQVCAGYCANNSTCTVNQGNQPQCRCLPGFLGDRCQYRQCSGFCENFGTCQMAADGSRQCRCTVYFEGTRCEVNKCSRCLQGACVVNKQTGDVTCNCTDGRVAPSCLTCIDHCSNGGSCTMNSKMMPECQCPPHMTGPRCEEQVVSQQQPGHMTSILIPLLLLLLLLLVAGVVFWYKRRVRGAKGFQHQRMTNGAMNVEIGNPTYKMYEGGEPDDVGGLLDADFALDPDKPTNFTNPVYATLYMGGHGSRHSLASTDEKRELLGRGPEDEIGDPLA

As to “P. falciparum CS protein CS27IVC-His6 (AA 27-123[NANPNVDP]3[NANP]21300-411) (from UniProt P05691 27-123) (ligand)”, the elevation of the cAMP level in Kupffer cells amounted to 3 fold.

The record behind these values is patent publication US20070041992A1.
